Measured values reported in patent US20210113678A1 (ENTEROME S A, published 2021).

Assays:
[1] = target: T1, HLA-A*0201 molecule expressed by the human tumoral cell T2 (human); assay: T2 cell HLA-A2 stabilisation assay, flow cytometry with anti-HLA-A2 BB7.2-PE
T1 construct: MHC class I on T2 cells; The tested peptide is added from outside; Surface HLA-A2 is read with anti-HLA-A2 antibody BB7.2-PE; also called HLA-A2

[2] = target: T2, HLA-A*0201 molecule on human T2 cells (human); assay: T2 cells expressing HLA-A*0201, anti-HLA-A2-PE, FACS
T2 construct: read out with anti-HLA-A2 antibody BB7.2-PE; also called HLA-A2

[3] = target: T2, HLA-A*0201 molecule on human T2 cells; assay: as above; remark: listed apart in the source

binding result [1]	mean relative fluorescence intensity at 1.5625 µM peptide [2]	mean relative fluorescence intensity at 3.125 µM peptide [2]	mean relative fluorescence intensity at 6.25 µM peptide [2]	mean relative fluorescence intensity at 25 µM peptide [2]	mean relative fluorescence intensity at 50 µM peptide [2]	mean relative fluorescence intensity at 100 µM peptide [2]	Concentration of peptide that induces 20% of HLA-A2 expression [3] [µM]	In vitro binding affinity (relative to reference peptide HIV pol 589-597) [3]	Binder
binds									LMLGEFLKL [peptide 2M]
binds									FMLGEFLKL [BIRC5-B1]
binds									LTLGEFLKL [BIRC5-H]
	8.6 % of HIV peptide	15.3 % of HIV peptide	26.6 % of HIV peptide	38.1 % of HIV peptide	40.4 % of HIV peptide	50.2 % of HIV peptide	4.1	0.3	VLEELLWFI (Fragment of human TYMS) [TYMS-H]
	0 % of HIV peptide	0 % of HIV peptide	0 % of HIV peptide	10.5 % of HIV peptide	30.7 % of HIV peptide	83.8 % of HIV peptide	37.6	3.7	RVSSYLVPI (Fragment of human FOXM1) [FOXM1-H]
	0 % of HIV peptide	0 % of HIV peptide	0 % of HIV peptide	7.6 % of HIV peptide	21.3 % of HIV peptide	47.5 % of HIV peptide	46.7	4.6	RLSSYLVEI [FOXM1-B]
	2.5 % of HIV peptide	14.3 % of HIV peptide	30.2 % of HIV peptide	36.7 % of HIV peptide	108 % of HIV peptide	76.9 % of HIV peptide	8.6	2.2	YLLSAALTI [CHI3L1B3]
	1.6 % of HIV peptide	4.5 % of HIV peptide	6.1 % of HIV peptide	32.5 % of HIV peptide	37.2 % of HIV peptide	50.6 % of HIV peptide	9.5	0.8	FLDSLGFST [TYMS-H2]
	10.7 % of HIV peptide	21.5 % of HIV peptide	27.5 % of HIV peptide	61.1 % of HIV peptide	62 % of HIV peptide	71.3 % of HIV peptide	2.7	0.2	FLDSLGFSL [TYMS-B2]
	-1.9 % of HIV peptide	1 % of HIV peptide	4.4 % of HIV peptide	4.9 % of HIV peptide	14.5 % of HIV peptide	11.2 % of HIV peptide			LLLSAALSA (Fragment of human CHI3L1) [CHI3L1H]
	13.5 % of HIV peptide	23.9 % of HIV peptide	44 % of HIV peptide	45.3 % of HIV peptide	85 % of HIV peptide	58.9 % of HIV peptide	3.6	0.9	LLLSAALSV [CHI3L1B]
	12.7 % of HIV peptide	22.7 % of HIV peptide	29.2 % of HIV peptide	53.2 % of HIV peptide	66.7 % of HIV peptide	70.3 % of HIV peptide	3.1	0.2	ILDEAYVRV [EGFR-B]
	15.9 % of HIV peptide	30.4 % of HIV peptide	36 % of HIV peptide	49.3 % of HIV peptide	65.7 % of HIV peptide	80.9 % of HIV peptide	1.1	0.1	SMEELLWFV [TYMS-B]
	5.3 % of HIV peptide	0.9 % of HIV peptide	19.7 % of HIV peptide	65.4 % of HIV peptide	62.5 % of HIV peptide	77.6 % of HIV peptide	12.6	2.5	LMDLSTTPL (Fragment of human FOXM1) [FOXM1-H2]
	5.5 % of HIV peptide	14.4 % of HIV peptide	28.9 % of HIV peptide	53.9 % of HIV peptide	82.6 % of HIV peptide	94.9 % of HIV peptide	8.8	0.7	FLVEDETVI [EZH2-B]
	0 % of HIV peptide	0.7 % of HIV peptide	10.6 % of HIV peptide	40.7 % of HIV peptide	66 % of HIV peptide	95.4 % of HIV peptide	13.3	1.1	FMVEDETVL (Fragment of human EZH2) [EZH2-H]
	9.4 % of HIV peptide	8.9 % of HIV peptide		20.9 % of HIV peptide	29.8 % of HIV peptide	35 % of HIV peptide	22.9	7	GLLGEFLQI (also called B1RC5-B3) [BIRC5-B3]
	7.2 % of HIV peptide	12.7 % of HIV peptide	33.5 % of HIV peptide	98.2 % of HIV peptide	91.5 % of HIV peptide	105 % of HIV peptide	6.7	1.3	LMDLSTTEV [FOXM1-B2]
	0 % of HIV peptide	0 % of HIV peptide	0 % of HIV peptide	13.3 % of HIV peptide		78.2 % of HIV peptide	39.2	7.8	SMFRVLIGT (Fragment of human EZH2) [EZH2-H2]
	0 % of HIV peptide	0 % of HIV peptide	0.5 % of HIV peptide	74.8 % of HIV peptide		112 % of HIV peptide	8.3	1.7	AVFRVLIPV [EZH2-B2]
binds									ILPFGFILA [peptide 1I9A]
	3 % of HIV peptide	3.7 % of HIV peptide	9.6 % of HIV peptide	11.2 % of HIV peptide	14.2 % of HIV peptide	26.5 % of HIV peptide			WLPFGFILI (Fragment of human IL13RA2) [IL13RA2-H]
binds									FLPFGFILV [IL13RA2-B]
binds									FLPFGFILM [peptide 1F9M]
binds									ALPFGFILV [comparative peptide 1A9V]
		6.6 % of HIV peptide	9 % of HIV peptide	29.6 % of HIV peptide	54.4 % of HIV peptide	58 % of HIV peptide	14.7	4.5	YTLGEFLYI [BIRC5-B2]
